{
  "source": "paper PMC11767649",
  "molecular_target": "rhRKIP C133A mutant, histidine-tagged (human) (UniProt P30086)",
  "test": "non-reducing SDS-PAGE; purified rhRKIP in sample loading buffer without β-mercaptoethanol or boiling; Coomassie Brilliant Blue staining or anti-His immunoblot",
  "data": [
    {"substance": "rhRKIP C133A mutant, histidine-tagged (from UniProt P30086 1-187) (natural protein)", "values": [
      {"measurement": "stoichiometry N", "value": 2}
    ]}
  ]
}
